Results on ten compounds are retold here after patent publication US20190029960A1, “Therapeutic Nanoparticles Having EGFR Ligands and Methods of Making and Using Same” (Pfizer Inc., priority 2016, published 2019).

*1 amine or outer side, *2 acyl side, *3 side chain or, on linkers, in order; H or OH if unused. Where a SMILES comes first, the peptide text is derived from it. Bridges are numbered along the chain shown (N, C = ends). Primed or numbered codes have the meaning given here. Where no end group is shown, it is not given here. Side-chain parts run from the residue outwards. [ ]: non-standard residue; d: D form. The star is where a group is joined. Trp(5-OMe) = COc1ccc2[nH]cc(C[C@H](N)C(=O)O)c2c1; DBCO = C1#Cc2ccccc2N(*)Cc2ccccc21; Igl = N[C@H](C(=O)O)C1Cc2ccccc2C1; PEG5 = NCCOCCOCCOCCOCCOCCC(=O)O; Pen = CC(C)(S)[C@H](N)C(=O)O; Suc = O=C(CCC(=O)[*:2])[*:1]; DBCO′ = dibenzocyclooctyne; Orn = NCCC[C@H](N)C(=O)O; Pra = C#CC[C@H](N)C(=O)O

The target of experiment [1] is T1, recombinant human EGFR (Homo sapiens, UniProt P00533).
T1 construct: Fc; purchased R&D Systems
The experiment is described as follows: P2 competition ELISA (P2-Biotin dimer tracer, 50 nM EGF). Format: binding. On the technique in general: ELISA stands for enzyme-linked immunosorbent assay.

In experiment [2] the target is T1, recombinant human EGFR. Briefly: EGF competition ELISA. Format: binding. Here is the method:
Plates were blocked for 2 h with 2% BSA in PBS at RT. […] Plates were washed three times with PBS containing 0.05% Tween-20 (PBS-T) and then incubated with a 1:10,000 dilution of streptavidin-HRP (Thermo Fisher Scientific) diluted in assay buffer for 90 min at RT. Plates were washed an additional three times with PBS-T, and then incubated with TMB substrate (BioFx) for 15 min at RT. Reactions were stopped with stop solution (BioFx) and absorbance was read at 450 nm in a microplate reader (SpectraMax M5e, Molecular Devices).
Plates were blocked for 2 hours with 2% BSA in PBS at room temperature (RT). […] Peptides were reconstituted as 100% DMSO stocks, resulting in a final concentration of DMSO in the assay of 2% for all samples. Plates were washed three times with PBS containing 0.05% Tween-20 (PBS-T) and then incubated with a 1:10,000 dilution of streptavidin-HRP (Piece) diluted in assay buffer for 90 minutes at RT. Plates were washed an additional three times with PBS-T and then incubated with TMB substrate (BioFx) for 15 minutes at RT. The reaction was stopped with stop solution (BioFx) and absorbance was read at 450 nm in a microplate reader (SpectraMax M5e, Molecular Devices).

In experiment [3] the target is T2, Fc tagged recombinant human EGFR (rhEGFR-Fc) (Homo sapiens, UniProt P00533).
T2 construct: purchased R&D Systems 344-ER-050
Format: binding. As to conditions: for Result: Table 14, relative affinity compared to KD of parent P2 (FIG. 16); for KD (μM): Table 11, P2 Ala scan; for Relative Affinity: Table 11, relative to the KD of parent P2. Here is the method: (§1) Surface plasmon resonance (SPR) binding studies were carried out on a Biacore T200 instrument (GE Healthcare). Approximately 10,000 RU of anti-Fc antibody (GE Healthcare, Cat #BR100839) was immobilized via amine coupling on each of flow cells 1 and 2 of a CM5 dextran-coated gold sensor chip (GE Healthcare, Cat #BR100530). […] The contact time and resulting amount of rhEGFR-Fc capture was varied based on the nature of the analyte, namely whether it was a peptide or nanoparticle.
(§2) Peptide binding assays were carried out in 10 mM PBS buffer supplemented with 0.05% surfactant P20 and 5% DMSO by volume, at 25° C. Peptides were injected over the rhEGFR-Fc surface for 60 s, followed by dissociation (buffer injection) for 60 s and regeneration with a 10 s pulse of 3M MgCl2. A fresh rhEGFR-Fc surface was generated for each concentration of each peptide tested. Peptide binding data was analyzed by fitting to a 1:1 Langmuir kinetic model to obtain the on-rate (ka), off-rate (kd) and/or equilibrium binding constant (KD) of the interaction.

Another experiment deals with T3, EGF bound EGFR (Homo sapiens, UniProt P00533).
T3 construct: purchased R&D Systems 344-ER-050 (rhEGFR-Fc); 236-EG (rhEGF)
The experiment is described as follows: SPR peptide binding, rhEGF pre-injected. The settings on record: With EGF. Here is the method: as §1, §2

The target of a further experiment is T4, rhEGFR-Fc (Homo sapiens, UniProt P00533).
T4 construct: purchased R&D Systems 344-ER-050
Briefly: SPR nanoparticle binding, without EGF. As to conditions: 1 mg/mL; for nanoparticle binding: FIG. 9C. The protocol:
Surface plasmon resonance (SPR) binding studies were carried out on a Biacore T200 instrument (GE Healthcare). Approximately 10,000 RU of anti-Fc antibody (GE Healthcare, Cat #BR100839) was immobilized via amine coupling on each of flow cells 1 and 2 of a CM5 dextran-coated gold sensor chip (GE Healthcare, Cat #BR100530). Fc tagged recombinant human EGFR (rhEGFR-Fc, R&D systems, Cat #344-ER-050) was reconstituted at 10 μg/mL in PBS and captured on flow cell 2. The contact time and resulting amount of rhEGFR-Fc capture was varied based on the nature of the analyte, namely whether it was a peptide or nanoparticle.
Nanoparticle binding assays were carried out in 10 mM HBS-EP+ buffer (GE Healthcare, Cat #BR100669) at 25° C. Nanoparticles were injected over the rh EGFR-Fc surface for 60 s, followed by dissociation for 60 s and regeneration with a 10 s pulse of 3M MgCl2. A fresh rhEGFR-Fc surface was generated for each concentration of each nanoparticle tested. Nanoparticle sensograms could not be fit accurately to the 1:1 Langmuir kinetic model due to the multivalent nature of the binding interaction between nanoparticle and target. Instead, nanoparticle binding data was presented as a plot of binding response vs. concentration at a single time point after the injection end.

In the case of `COc1ccc2[nH]cc(C[C@@H]3NC(=O)[C@H](C(C)C)NC(=O)[C@H](CCC(=O)O)NC(=O)[C@H](C4Cc5ccccc5C4)NC(=O)[C@H]([C@@H](C)O)NC(=O)[C@@H](NC(=O)[C@H](C)NC(=O)[C@H](CC(=O)O)NC(C)=O)C(C)(C)SSC(C)(C)[C@@H](C(=O)N[C@@H](CC(C)C)C(=O)N[C@@H](CCC(N)=O)C(=O)NCC(=O)NCC(=O)N[C@@H](CCCCNC(=O)CCOCCOCCOCCOCCOCCNC(=O)CCC(=O)N4Cc5ccccc5C#Cc5ccccc54)C(N)=O)NC(=O)[C@H](CCC(=O)O)NC(=O)[C@H](CCCNC(=N)N)NC(=O)CNC3=O)c2c1` [P2-2/55/102, Ac-DAPenT(2Ind)GEV(5MeO)WGREPenLQGGK(DBCO)-CONH2] (Ac-DA[Pen]T[Igl]EV[Trp(5-OMe)]GRE[Pen]LQGGK([PEG5-Suc-DBCO])-NH2; disulfide 3-12), the IC50 on recombinant human EGFR [1] is 609 nM.

In the case of `COc1ccc2[nH]cc(C[C@@H]3NC(=O)[C@H](C(C)C)NC(=O)[C@H](CCC(=O)O)NC(=O)[C@H](C4Cc5ccccc5C4)NC(=O)[C@H]([C@@H](C)O)NC(=O)[C@@H](NC(=O)[C@@H]4CCCN4C(=O)[C@H](CC(=O)O)NC(C)=O)C(C)(C)SSC(C)(C)[C@@H](C(=O)N[C@@H](CC(C)C)C(=O)N[C@@H](CCC(N)=O)C(=O)NCC(=O)NCC(=O)N[C@@H](CCCCNC(=O)CCOCCOCCOCCOCCOCCNC(=O)CCC(=O)N4Cc5ccccc5C#Cc5ccccc54)C(N)=O)NC(=O)[C@H](CCC(=O)O)NC(=O)[C@H](CCCNC(=N)N)NC(=O)CNC3=O)c2c1` [P2-55/102, Ac-DPPenT(2Ind)GEV(5MeO)WGREPenLQGGK(DBCO)-CONH2] (Ac-DP[Pen]T[Igl]EV[Trp(5-OMe)]GRE[Pen]LQGGK([PEG5-Suc-DBCO])-NH2; disulfide 3-12), the IC50 at recombinant human EGFR [1] was 829 nM.

For `CC[C@H](C)[C@H](NC(=O)[C@@H]1CSSC[C@H](NC(=O)[C@H](CCC(=O)O)NC(=O)[C@H](CO)NC(C)=O)C(=O)N[C@@H](Cc2ccccc2)C(=O)N2CCC[C@H]2C(=O)N[C@@H](C)C(=O)N[C@@H](C)C(=O)N2CCC[C@H]2C(=O)N[C@@H](CC(=O)O)C(=O)N[C@@H](Cc2c[nH]c3ccccc23)C(=O)N[C@@H](CC(C)C)C(=O)N[C@@H](CO)C(=O)N1)C(=O)N[C@@H](CC(C)C)C(=O)NCC(=O)NCC(=O)N[C@@H](CCCCNC(=O)CCOCCOCCOCCOCCOCCNC(=O)CCC(=O)N1Cc2ccccc2C#Cc2ccccc21)C(N)=O` [Peptide P1-3], the half-maximal inhibitory concentration (IC50) at recombinant human EGFR [2] was 4100 nM.

In the case of `CC(=O)N[C@@H](CC(=O)O)C(=O)N1CCC[C@H]1C(=O)N[C@H]1CSSC[C@@H](C(=O)N[C@@H](CC(C)C)C(=O)N[C@@H](CCC(N)=O)C(=O)NCC(=O)NCC(=O)N[C@@H](CCCCNC(=O)CCOCCOCCOCCOCCOCCNC(=O)CCC(=O)N2Cc3ccccc3C#Cc3ccccc32)C(N)=O)NC(=O)[C@H](CCC(=O)O)NC(=O)[C@H](CCCNC(=N)N)NC(=O)CNC(=O)[C@H](Cc2c[nH]c3ccccc23)NC(=O)[C@H](C(C)C)NC(=O)[C@H](CCC(=O)O)NC(=O)[C@H](Cc2c[nH]c3ccccc23)NC(=O)[C@H]([C@@H](C)O)NC1=O` [Peptide P2], the kd is reported as 9 ± 2 × 10^−3 s^−1 in experiment [3] (Without EGF) and 7 ± 2 × 10^−3 s^−1 at EGF bound EGFR.

On to “Ac-SECFPLAPDWLSCILGGK(DBCO)-CONH2 (Ac-SECFPLAPDWLSCILGGK(DBCO′)-NH2; disulfide 3-13 (inferred)) [Peptide P1]”, for which the nanoparticle binding signal result with rhEGFR-Fc (5% and 10% ligand density, FIG. 8B) is given as “comparable to EGF-NP”. In addition, the nanoparticle binding result in the experiment with rhEGFR-Fc (5% ligand density) is on record as “minimal binding”; with rhEGFR-Fc (10% ligand density) it was “more robust binding”.

Turning to “H2N-GDPETWEVWGRE-Orn-LQ-GG-Par-G-CONH2 (H-GDPETWEVWGRE[Orn]LQGG[Pra]G-NH2; lactam 4-13; SMILES C#CC[C@H](NC(=O)CNC(=O)CNC(=O)[C@H](CCC(N)=O)NC(=O)[C@H](CC(C)C)NC(=O)[C@@H]1CCCNC(=O)CC[C@H](NC(=O)[C@@H]2CCCN2C(=O)[C@H](CC(=O)O)NC(=O)CN)C(=O)N[C@@H]([C@@H](C)O)C(=O)N[C@@H](Cc2c[nH]c3ccccc23)C(=O)N[C@@H](CCC(=O)O)C(=O)N[C@@H](C(C)C)C(=O)N[C@@H](Cc2c[nH]c3ccccc23)C(=O)NCC(=O)N[C@@H](CCCNC(=N)N)C(=O)N[C@@H](CCC(=O)O)C(=O)N1)C(=O)NCC(N)=O) [Peptide P2-68]”, in experiment [3], the Result result is given as “No binding”.

On to “H2N-GDPKTWEVWGREELQ-GG-Par-G-CONH2 (H-GDPKTWEVWGREELQGG[Pra]G-NH2; lactam 4-13; SMILES C#CC[C@H](NC(=O)CNC(=O)CNC(=O)[C@H](CCC(N)=O)NC(=O)[C@H](CC(C)C)NC(=O)[C@@H]1CCC(=O)NCCCC[C@H](NC(=O)[C@@H]2CCCN2C(=O)[C@H](CC(=O)O)NC(=O)CN)C(=O)N[C@@H]([C@@H](C)O)C(=O)N[C@@H](Cc2c[nH]c3ccccc23)C(=O)N[C@@H](CCC(=O)O)C(=O)N[C@@H](C(C)C)C(=O)N[C@@H](Cc2c[nH]c3ccccc23)C(=O)NCC(=O)N[C@@H](CCCNC(=N)N)C(=O)N[C@@H](CCC(=O)O)C(=O)N1)C(=O)NCC(N)=O) [Peptide P2-60]”, for which the Result result in experiment [3] is on record as “No binding”.

For “P2-3: P2 alanine scan analog, alanine at position 3 (Ac-DPATWEVWGRECLQ-NH2) [Peptide P2-3]”, in experiment [3], the “KD (μM)” value is recorded as “nb” and the “Relative Affinity” value is recorded as “nb”.

With “P2-8: P2 alanine scan analog, alanine at position 8 (DPCTWEVAGRECLQ; disulfide 3-12 (inferred); not fully specified (N-terminus, C-terminus)) [Peptide P2-8]”, in experiment [3], the “KD (μM)” value was “nb” and the “Relative Affinity” value is “nb”.

For the compound “P2-12: P2 alanine scan analog, alanine at position 12 (Ac-DPCTWEVWGREALQ-NH2) [Peptide P2-12]”, in experiment [3], the “KD (μM)” value is reported as “nb” and the “Relative Affinity” value was “nb”.

By IC50 is commonly meant the midpoint of a concentration-inhibition curve.
